This passage reports Kd and fold increase in binding against MCF-7 cells results from patent publication US20080145369A1.

Experiment [1] deals with PCDGF cell surface receptors on the mink lung epithelial cell line CCL64 (mink). Description: Scatchard analysis of 125I-PCDGF binding to CCL64 cells, low affinity class.
The target in experiment [2] is PCDGF receptor on breast cancer cells (MCF-7; AG-BC1). Description: PCDGF binding to AG-BC1 cells against MCF-7 cells; method not stated.
The target in experiment [3] is PCDGF cell surface receptors on the mink lung epithelial cell line CCL64 (mink). Description: Scatchard analysis of 125I-PCDGF binding to CCL64 cells, high affinity class.

A word on the Kd: it is a measure of binding affinity in units of concentration.

In the case of “PC-cell-derived growth factor (PCDGF) (ligand)”, the figures for the Kd in experiment [1] and in experiment [3] were 3.9 nM and 0.043 nM, respectively. In experiment [2], this substance gave a fold increase in binding against MCF-7 cells of 10 fold.
